# Measurements: patent US20250084169A1 (published 2025)
# Where a chain is given by its changes, count along the chain named. Read-outs that look alike come from different tables or passages of the source.
# B1: Rituximab (antibody)
# VH: not shown
# VL: QIVLSQSPAILSASPGEKVTMTCRASSSVSYIHWFQQKPGSSPKPWIYATSNLASGVPVRFSGSGSGTSYSLTISRVEAEDAATYYCQQWTSNPPTFGGGTKLEIKRTVAAPSVFIFPPSDEQLKSGTASVVCLLNNFYPREAKVQWKVDNALQSGNSQESVTEQDSKDSTYSLSSTLTLSKADYEKHKVYACEVTHQGLSSPVTKSFNRGEC
# Tests used:
# [1] = target: T1, recombinant human Fc gamma RIIIa (CD16a) 158V (human, UniProt P08637 17-208)
# [2] = target: T2, recombinant human Fc gamma RIIIb (CD16b) (human, UniProt O75015 17-200)
# [3] = target: T3, recombinant human Fc gamma RIIa (CD32a) 131H (human, UniProt P12318 36-218)
# T3 sequence (looked up): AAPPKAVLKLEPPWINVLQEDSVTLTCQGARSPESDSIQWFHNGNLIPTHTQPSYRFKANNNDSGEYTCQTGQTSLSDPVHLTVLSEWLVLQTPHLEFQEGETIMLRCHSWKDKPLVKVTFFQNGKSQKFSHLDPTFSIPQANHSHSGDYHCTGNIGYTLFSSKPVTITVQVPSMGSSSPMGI
# [4] = target: T4, recombinant human Fc gamma RIIa (CD32a) 131R (human, UniProt P12318 36-218)
# T4 sequence (looked up): T3 sequence (looked up) with H132R
# [5] = target: T5, recombinant human Fc gamma RIIb/c (CD32b/c) (human, UniProt P31994 46-217)
# T5 sequence (looked up): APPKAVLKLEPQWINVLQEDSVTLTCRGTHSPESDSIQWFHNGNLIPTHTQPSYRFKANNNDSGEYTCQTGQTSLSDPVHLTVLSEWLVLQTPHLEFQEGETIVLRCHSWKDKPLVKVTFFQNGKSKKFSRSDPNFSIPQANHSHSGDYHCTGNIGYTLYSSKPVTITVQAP
# [6] = target: T6, recombinant human Fc gamma RI (CD64) (human, UniProt P12314 16-288)
# CD20 Lipoparticles = target: T7, CD20 Lipoparticles (Homo sapiens (Human), UniProt P11836 1-297)
# T7 sequence: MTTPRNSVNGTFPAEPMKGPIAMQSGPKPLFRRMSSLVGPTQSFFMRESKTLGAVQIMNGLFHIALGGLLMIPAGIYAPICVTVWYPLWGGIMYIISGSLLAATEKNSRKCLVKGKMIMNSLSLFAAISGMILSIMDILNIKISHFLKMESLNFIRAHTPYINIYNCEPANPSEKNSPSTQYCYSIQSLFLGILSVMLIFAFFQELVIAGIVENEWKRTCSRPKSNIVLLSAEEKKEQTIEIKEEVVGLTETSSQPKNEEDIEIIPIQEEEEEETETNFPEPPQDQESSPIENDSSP
# [7] = target: T8, recombinant human full-length CD20 (human, UniProt P11836 1-297)
# T8 sequence (looked up): T7 sequence
# [8] = target: T9, recombinant human Fc gamma RIIIa (CD16a) 158F (human, UniProt P08637 17-208)
# [9] = target: T1, recombinant human Fc gamma RIIIa …; remark: listed apart in the source
# [10] = target: T2, recombinant human Fc gamma RIIIb (CD16b); remark: listed apart in the source
# [11] = target: T3, recombinant human Fc gamma RIIa (CD32a) …; remark: listed apart in the source
# [12] = target: T4, recombinant human Fc gamma RIIa (CD32a) …; remark: listed apart in the source
# [13] = target: T5, recombinant human Fc gamma RIIb/c …; remark: listed apart in the source
# [14] = target: T6, recombinant human Fc gamma RI (CD64); remark: listed apart in the source
# [15] = target: T10, cynomolgus monkey Fc gamma receptor CD16 (cynomolgus monkey, UniProt Q8SPW2 17-208)
# [16] = target: T10, cynomolgus monkey Fc gamma receptor CD16; remark: listed apart in the source
# [17] = target: T11, recombinant cynomolgus monkey CD20 (cynomolgus monkey, UniProt M4ZHZ6 1-297)
# T11 sequence: T7 sequence with S25P, F31L, T51A, A157V, K217R, N226S, I227V, T239V
# [18] = target: T12, cynomolgus monkey CD20 on cells (cynomolgus monkey, UniProt M4ZHZ6 1-297)
# T12 sequence: T7 sequence with S25P, F31L, T51A, A157V, K217R, N226S, I227V, T239V
# [19] = target: T9, recombinant human Fc gamma RIIIa …; remark: listed apart in the source
# [20] = target: T1, recombinant human Fc gamma RIIIa …; remark: listed apart in the source
# [21] = target: T2, recombinant human Fc gamma RIIIb (CD16b); remark: listed apart in the source
# [22] = target: T4, recombinant human Fc gamma RIIa (CD32a) …; remark: listed apart in the source
# [23] = target: T5, recombinant human Fc gamma RIIb/c …; remark: listed apart in the source
# [24] = target: T6, recombinant human Fc gamma RI (CD64); remark: listed apart in the source
# T1 sequence (P08637 17-208 F176V limits assumed): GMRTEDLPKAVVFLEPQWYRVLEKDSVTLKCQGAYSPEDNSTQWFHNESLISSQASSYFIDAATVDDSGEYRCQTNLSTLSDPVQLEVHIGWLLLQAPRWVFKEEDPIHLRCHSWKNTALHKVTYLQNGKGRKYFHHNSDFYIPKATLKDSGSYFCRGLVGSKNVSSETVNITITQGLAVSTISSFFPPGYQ
# T6 sequence (P12314 16-288 limits assumed): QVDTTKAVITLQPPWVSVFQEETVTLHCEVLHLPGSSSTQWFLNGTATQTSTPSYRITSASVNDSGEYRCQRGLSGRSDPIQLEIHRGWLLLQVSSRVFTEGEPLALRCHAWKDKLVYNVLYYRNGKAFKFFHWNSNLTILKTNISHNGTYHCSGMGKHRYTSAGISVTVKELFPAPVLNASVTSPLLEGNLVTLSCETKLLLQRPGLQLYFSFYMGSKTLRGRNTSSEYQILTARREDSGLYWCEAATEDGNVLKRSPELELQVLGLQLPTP
# T2 sequence (O75015 17-200 limits assumed): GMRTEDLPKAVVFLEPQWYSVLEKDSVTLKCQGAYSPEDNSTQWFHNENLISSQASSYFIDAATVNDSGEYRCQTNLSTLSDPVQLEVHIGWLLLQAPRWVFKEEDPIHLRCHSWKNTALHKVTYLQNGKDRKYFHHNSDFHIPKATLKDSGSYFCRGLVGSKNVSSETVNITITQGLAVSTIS
# T10 sequence (Q8SPW2 17-208 limits assumed): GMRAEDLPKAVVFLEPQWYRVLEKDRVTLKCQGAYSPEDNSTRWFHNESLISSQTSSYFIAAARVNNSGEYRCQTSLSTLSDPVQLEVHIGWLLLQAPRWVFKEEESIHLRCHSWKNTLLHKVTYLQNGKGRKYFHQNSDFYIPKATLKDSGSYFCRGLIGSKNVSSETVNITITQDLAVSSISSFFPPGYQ
# T9 sequence (P08637 17-208 limits assumed): as the sequence (P08637 17-208 F176V limits assumed) above, with V160F counted along it
binder,measurement,setting,value
B1,Kd,[1],715 nM
same,Kd,[2],1530 nM
same,Kd,[3],892 nM
same,Kd,[4],1250 nM
same,Kd,[5],1520 nM
same,Kd,[6],52.8 nM
same,Kd,CD20 Lipoparticles,< 1 pM
same,Kd,[7],0.46 nM
same,Kd,[8],1530 nM
same,Kd,[9],595 nM
same,Kd,[10],4.09 µM
same,Kd,[11],1740 nM
same,Kd,[12],2330 nM
same,Kd,[13],6.68 µM
same,Kd,[14],11.3 nM
same,Kd,[15],425 nM
same,Kd,[16],130 nM
same,Kd,[17],1.1 nM
same,EC50,[18],0.61 nM
same,Kd,[19],1520 nM
same,Kd,[20],309 nM
same,Kd,[21],4.32 µM
same,Kd,[22],635 nM
same,Kd,[23],8.88 µM
same,Kd,[24],0.0547 nM
